Molecular target: SPARDA complex (heterodimer of NbaAgo and DREN-APAZ), wild type (Novosphingopyxis baekryungensis)
Assay: SEC

Question: With “SPARDA complex (heterodimer of NbaAgo and DREN-APAZ), wild type” as the substance, how does the stoichiometry N read?
Answer: 2

— paper doi:10.1101/2023.06.08.544223
